The values below come from article PMC4747905.

In assay [1] the target is BRCT-Ab2p complex (UniProt P38398). As to the kind of experiment: native MS; peak fractions from gel filtration, 15 μM protein, 300 mM ammonium acetate pH 7.6, nano-electrospray.
The target of assay [2] is BRCA1 BRCT domains (UniProt P38398). The assay can be described thus: size exclusion chromatography, 1 mg/ml. The following applies: sites S406. (SEC sorts molecules by how far they enter the pores of the column.)
Assay [3] has the same target. The assay can be described thus: small angle X-ray scattering. Particulars: reference: Ab1p (pS406 only); sites S404.
Assay [4] shares this target. The assay can be described thus: native mass spectrometry, 15 µM. The following applies: reference: Ab1p (pS406 only); sites S404.
Assay [5] shares this target. As to the kind of experiment: size exclusion chromatography, 1:1 versus 2:2 complex. The following applies: reference: Ab1p (pS406 only); sites S404.

As a reminder, the stoichiometry N is a count of units in the complex or per binding partner.

“BRCT-Ab2p complex (from UniProt P38398 1646-1859)” gave a stoichiometry N in assay [1] of 2.
Consider “Abraxas 399-409 (from UniProt Q6UWZ7) pS406 peptide (Ab1p)”, for which, in assay [2] (reference: unphosphorylated peptide), the “binding against the reference” value was “gained”.
Turning to “Abraxas 399-409 (from UniProt Q6UWZ7) Ab2p (pS404 pS406)”, the “binding against the reference” value is “stronger” in assay [3], “stronger” in assay [4], “gained” in assay [2] (reference: pS404-only peptide) and “stronger” in assay [5].
